Common to all, as to details: glycan lost; control: wild type
Data set [1] in a line: anti-Flag immunoblot, lysate vs medium, 1 μM MG-132 16 h.
Data set [2] can be described thus: anti-Flag capillary immunoblot of Flag-purified medium, pooled n=6. A general note: Immunoblotting shows a protein as a band on a membrane.
The nature of data set [3]: SYPRO Orange thermal shift, pooled purified protein.

B1: Tissue-nonspecific alkaline phosphatase (TNALP): N140Q/N271Q (protein)
parent chain: MISPFLVLAIGTCLTNSLVPEKEKDPKYWRDQAQETLKYALELQKLNTNVAKNVIMFLGDGMGVSTVTAARILKGQLHHNPGEETRLEMDKFPFVALSKTYNTNAQVPDSAGTATAYLCGVKANEGTVGVSAATERSRCNTTQGNEVTSILRWAKDAGKSVGIVTTTRVNHATPSAAYAHSADRDWYSDNEMPPEALSQGCKDIAYQLMHNIRDIDVIMGGGRKYMYPKNKTDVEYESDEKARGTRLDGLDLVDTWKSFKPRYKHSHFIWNRTELLTLDPHNVDYLLGLFEPGDMQYELNRNNVTDPSLSEMVVVAIQILRKNPKGFFLLVEGGRIDHGHHEGKAKQALHEAVEMDRAIGQAGSLTSSEDTLTVVTADHSHVFTFGGYTPRGNSIFGLAPMLSDTDKKPFTAILYGNGPGYKVVGGERENVSMVDYAHNNYQAQSAVPLRHETHGGEDVAVFSKGPMAHLLHGVHEQNYVPHVMAYAACIGANLGHCAPASSAGSLAAGPLLLALALYPLSVLF
Take B1: the “localisation_or_trafficking, fold_change” value in data set [1] is on record as “changes”. In addition, the “expression_or_secretion, fold_change” value in data set [2] is on record as “decreases, 0.2 vs 1.0”. Moreover, the “stability_or_folding, Tm” value in data set [3] is given as “decreases, 53.7 vs 54.5”.

B2: Tissue-nonspecific alkaline phosphatase (TNALP): N230Q/N271Q (protein)
parent chain: B1 parent chain
For B2, the “localisation_or_trafficking, fold_change” value in data set [1] was “changes”. For the same protein, the “expression_or_secretion, fold_change” value in data set [2] was “abolishes, 0.0 vs 1.0”.

The values above are taken from publication PMC12861225.
